Measurements: article doi:10.1101/2020.06.03.132209 (bioRxiv, 2020)

Target: T1, Dehydrodolichyl diphosphate synthase (DHDDS), full length (1-333), untagged (human, UniProt Q86SQ9-1 1-333)
T1 sequence: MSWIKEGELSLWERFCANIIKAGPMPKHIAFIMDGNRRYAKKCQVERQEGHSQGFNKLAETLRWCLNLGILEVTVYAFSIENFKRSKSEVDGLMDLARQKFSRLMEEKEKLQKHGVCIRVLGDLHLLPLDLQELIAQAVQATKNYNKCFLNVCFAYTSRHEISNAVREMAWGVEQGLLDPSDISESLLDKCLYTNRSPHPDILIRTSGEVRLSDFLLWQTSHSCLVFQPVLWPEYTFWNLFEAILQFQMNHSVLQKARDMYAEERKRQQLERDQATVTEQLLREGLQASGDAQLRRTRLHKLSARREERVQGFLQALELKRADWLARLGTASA
Assay: crystal structure

binding result: binds
B1: NgBR^79-293 (Nogo-B receptor, N-terminal 78 amino acids deleted) (domain or fragment)
chain: AAAHHRMRWRADGRSLEKLPVHMGLVITEVEQEPSFSDIASLVVWCMAVGISYISVYDHQGIFKRNNSRLMDEILKQQQELLGLDCSKYSPEFANSNDKDDQVLNCHLAVKVLSPEDGKADIVRAAQDFCQLVAQKQKRPTDLDVDTLASLLSSNGCPDPDLVLKFGPVDSTLGFLPWHIRLTEIVSLPSHLNISYEDFFSALRQYAACEQRLGK
